From publication PMC4118983, “Structural Insights into Calcium-Bound S100P and the V Domain of the RAGE Complex” (PLoS ONE, 2014)
Numbering of substitutions follows the chain as printed. Numbers in names are those of the source. Where “and” joins values, the source holds several entries; their conditions need not be identical. Identical values can stand only once.

B1: Recombinant wild-type S100P (residues 1–95), calcium-bound (natural protein, UniProt P25815 1-95, looked up)
chain: MTELETAMGMIIDVFSRYSGSEGSTQTLTKGELKVLMEKELPGFLQSGKDKDAVDKLLKDLDANGDAQVDFSEFIVFVAAITSACHKYFEKAGLK
notes: S100P, residues 1-95; 15N-labelled or unlabelled in the NMR experiments; it names no tag; also called WS100P; source: E. coli BL21(DE3), pET-20b(+), purified (size exclusion chromatography, Superdex 75)
B2: S100P E5A single mutant (natural protein, UniProt P25815 1-95, looked up)
chain: B1 chain with E5A
notes: S100P, residues 1-95, with E5A; Used with 4 mM CaCl2; source: E. coli BL21(DE3), pET-20b(+), purified (size exclusion chromatography, Superdex 75)
B3: S100P F44G/Y88G/F89G triple mutant (natural protein, UniProt P25815 1-95, looked up)
chain: B1 chain with F44G, Y88G, F89G
notes: S100P, residues 1-95, with F44G, Y88G and F89G; Section 2.2 prints 'F44G/Y89G/F89G'; every other place prints F44G/Y88G/F89G; Used with 4 mM CaCl2; also called S100P F44G/Y89G/F89G (as printed in the methods); source: E. coli BL21(DE3), pET-20b(+), purified (size exclusion chromatography, Superdex 75)
B4: S100P D13A single mutant (natural protein, UniProt P25815 1-95, looked up)
chain: B1 chain with D13A
notes: S100P, residues 1-95, with D13A; Used with 4 mM CaCl2; source: E. coli BL21(DE3), pET-20b(+), purified (size exclusion chromatography, Superdex 75)

How the values were obtained:
[1] = molecular target: T1, Recombinant RAGE V domain (residues 24–121) (UniProt Q15109 24-121); assay: cell-based or functional assay
T1 sequence (Q15109 24-121): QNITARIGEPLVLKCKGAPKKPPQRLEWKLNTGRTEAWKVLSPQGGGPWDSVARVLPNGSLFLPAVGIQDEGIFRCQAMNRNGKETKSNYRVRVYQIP

[2] = molecular target: the molecule itself; assay: SEC; S100P proteins on a Superdex 75 column (1.6×60 cm), last step of purification
[3] = molecular target: T1, Recombinant RAGE V domain (residues …); assay: ITC; S100P (2.0 mM, syringe) titrated into RAGE V domain (0.06 mM, cell); MicroCal VP-ITC; 25°C; 20 mM Tris-HCl pH 7.0, 100 mM NaCl, 4 mM CaCl2; single-site model; similar approach for the S100P mutants; details: both partners purified
[4] = molecular target: T1, Recombinant RAGE V domain (residues …); assay: other fluorescence titration; intrinsic tryptophan fluorescence of 2 µM RAGE V domain (excitation 295 nm, emission 348.5 nm), S100P added in increments; 20 mM Tris-HCl pH 7.0, 100 mM NaCl, 4 mM CaCl2; 25°C; one-site binding model; details: both partners purified

Row | Binder | SW-480 cell proliferation (MTT assay, 48 h), 100 nM wild-type S100P, viable cell count against the control [1] | stoichiometry N [2] | Kd [3] | dH [3] | stoichiometry N [3] | Kd [4]
1 | B1 | ~1.5 fold | 2 | 6.2 ± 0.1 µM | 4.094 ± 0.02 kcal/mol | 1.07 ± 0.03 | ~6.8 µM
2 | B2 | – | 2 | 22.8 µM and 23.6 µM | – | – | –
3 | B3 | – | 2 | – | – | – | –
4 | B4 | – | 2 | 878 µM | – | – | –
